# Data taken from the supplement of paper PMC9112550, “Optimization of the antimicrobial peptide Bac7 by deep mutational scanning” (BMC Biology, 2022).
# Test system: Escherichia coli TOP10
# Test: shrunken log2 fold change of peptide-encoding DNA abundance (4.5 h post-induction vs induction); higher = less antimicrobial activity (less host growth inhibition)
# Details: time post-induction: 4.5 h; library: site-saturation at positions 5, 18, 19, 20
# 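Further: peptides expressed intracellularly from a pBAD plasmid library in pooled LB shake-flask culture, induced with 0.3% L-arabinose, DNA abundance read by NGS, three biological replicates, DESeq2 with apeglm shrinkage.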
row,Sequence,shrunken log2 fold change
1,RRIRGRPPRLPRPRPRPGIVPRP,0.957
2,RRIRFRPPRLPRPRPRPMEPPRP,0.039
3,RRIRKRPPRLPRPRPRPDFCPRP,0.129
4,RRIRMRPPRLPRPRPRPTQAPRP,0.0839
5,RRIRVRPPRLPRPRPRPGTTPRP,-0.108
6,RRIRQRPPRLPRPRPRPDRLPRP,-0.0692
7,RRIRDRPPRLPRPRPRPWRDPRP,-0.0505
8,RRIRRRPPRLPRPRPRPNMEPRP,0.0673
9,RRIRERPPRLPRPRPRPMGEPRP,-0.00192
10,RRIRARPPRLPRPRPRPYPYPRP,-0.152
11,RRIRKRPPRLPRPRPRPEWEPRP,0.271
12,RRIRCRPPRLPRPRPRPSPGPRP,0.0883
13,RRIRPRPPRLPRPRPRPMNQPRP,0.00354
14,RRIRRRPPRLPRPRPRPIYLPRP,-0.205
15,RRIRDRPPRLPRPRPRPDWGPRP,0.161
16,RRIRTRPPRLPRPRPRPIFWPRP,0.85
17,RRIRPRPPRLPRPRPRPCADPRP,0.213
18,RRIRDRPPRLPRPRPRPDGLPRP,0.107
19,RRIRARPPRLPRPRPRPFFEPRP,0.423
20,RRIRYRPPRLPRPRPRPAQTPRP,0.0654
21,RRIRTRPPRLPRPRPRPVQFPRP,-0.0192
22,RRIRHRPPRLPRPRPRPRDAPRP,0.14

row,Sequence,shrunken log2 fold change
1,RRIRWRPPRLPRPRPRPWWVPRP,0.13
2,RRIRIRPPRLPRPRPRPQMQPRP,-0.325
3,RRIRSRPPRLPRPRPRPYYMPRP,-0.622
4,RRIRGRPPRLPRPRPRPLFKPRP,0.337
5,RRIRQRPPRLPRPRPRPKVKPRP,-0.223
6,RRIRKRPPRLPRPRPRPKKLPRP,0.16
7,RRIRWRPPRLPRPRPRPIFPPRP,0.13
8,RRIRWRPPRLPRPRPRPMFKPRP,0.0191
9,RRIRKRPPRLPRPRPRPNALPRP,0.301
10,RRIRTRPPRLPRPRPRPHHNPRP,-0.795
11,RRIRYRPPRLPRPRPRPWFDPRP,-0.415
12,RRIRIRPPRLPRPRPRPWYEPRP,-0.0153
13,RRIRYRPPRLPRPRPRPVGGPRP,-0.179
14,RRIRRRPPRLPRPRPRPIELPRP,-0.192
15,RRIRDRPPRLPRPRPRPNPQPRP,-0.19
16,RRIRVRPPRLPRPRPRPAVWPRP,0.458
17,RRIRFRPPRLPRPRPRPIGLPRP,-0.251
18,RRIRIRPPRLPRPRPRPEVYPRP,-0.0738
19,RRIRGRPPRLPRPRPRPSRFPRP,0.0371
20,RRIRMRPPRLPRPRPRPGTHPRP,0.056
21,RRIRRRPPRLPRPRPRPDVHPRP,-0.101
22,RRIRFRPPRLPRPRPRPYDRPRP,-0.0252

row,Sequence,shrunken log2 fold change
1,RRIRKRPPRLPRPRPRPSEMPRP,-0.17
2,RRIRWRPPRLPRPRPRPDWAPRP,-0.107
3,RRIRVRPPRLPRPRPRPRFGPRP,0.249
4,RRIRLRPPRLPRPRPRPIELPRP,0.00435
5,RRIRWRPPRLPRPRPRPEELPRP,-0.00088
6,RRIRDRPPRLPRPRPRPDFIPRP,0.0951
7,RRIRPRPPRLPRPRPRPGQQPRP,0.167
8,RRIRQRPPRLPRPRPRPGVTPRP,0.0644
9,RRIRGRPPRLPRPRPRPLMDPRP,1.04
10,RRIRIRPPRLPRPRPRPHGKPRP,-0.326
11,RRIRQRPPRLPRPRPRPTCMPRP,-0.163
12,RRIRKRPPRLPRPRPRPEMYPRP,0.214
13,RRIRMRPPRLPRPRPRPDFCPRP,0.0837
14,RRIRGRPPRLPRPRPRPYFTPRP,-0.123
15,RRIRSRPPRLPRPRPRPHWYPRP,-0.648
16,RRIRVRPPRLPRPRPRPMPVPRP,0.00602
17,RRIRCRPPRLPRPRPRPLQMPRP,-0.182
18,RRIRQRPPRLPRPRPRPTSCPRP,-0.0676
19,RRIRPRPPRLPRPRPRPHHDPRP,-0.266
20,RRIRDRPPRLPRPRPRPKRAPRP,-0.0273
21,RRIRMRPPRLPRPRPRPLENPRP,0.0866
22,RRIRIRPPRLPRPRPRPESYPRP,0.0064

row,Sequence,shrunken log2 fold change
1,RRIRYRPPRLPRPRPRPPLQPRP,0.187
2,RRIRVRPPRLPRPRPRPTDYPRP,-0.479
3,RRIRMRPPRLPRPRPRPREAPRP,1.82
4,RRIRRRPPRLPRPRPRPGKAPRP,0.112
5,RRIRARPPRLPRPRPRPVDIPRP,0.135
6,RRIRSRPPRLPRPRPRPNQGPRP,0.153
7,RRIRARPPRLPRPRPRPCGKPRP,0.659
8,RRIRCRPPRLPRPRPRPVHIPRP,-0.831
9,RRIRTRPPRLPRPRPRPFTVPRP,-0.00127
10,RRIRLRPPRLPRPRPRPQDYPRP,-0.31
11,RRIRPRPPRLPRPRPRPSFSPRP,-0.578
12,RRIRLRPPRLPRPRPRPYFLPRP,-0.798
13,RRIRQRPPRLPRPRPRPCSSPRP,-0.0115
14,RRIRWRPPRLPRPRPRPYDCPRP,0.00333
15,RRIRGRPPRLPRPRPRPRGVPRP,0.89
16,RRIRRRPPRLPRPRPRPYDFPRP,-0.296
17,RRIRMRPPRLPRPRPRPINEPRP,-0.0839
18,RRIRYRPPRLPRPRPRPWTRPRP,0.0101
19,RRIRHRPPRLPRPRPRPWNGPRP,-0.228
20,RRIRWRPPRLPRPRPRPTKEPRP,0.177
21,RRIRGRPPRLPRPRPRPVHMPRP,-0.0938
22,RRIRGRPPRLPRPRPRPGVNPRP,0.075

row,Sequence,shrunken log2 fold change
1,RRIRPRPPRLPRPRPRPVCKPRP,0.0717
2,RRIRLRPPRLPRPRPRPDSLPRP,-0.335
3,RRIRTRPPRLPRPRPRPSCYPRP,-0.654
4,RRIRYRPPRLPRPRPRPVICPRP,-0.0887
5,RRIRYRPPRLPRPRPRPPLLPRP,-0.385
6,RRIRDRPPRLPRPRPRPNQRPRP,-0.264
7,RRIRHRPPRLPRPRPRPTGQPRP,0.0378
8,RRIRARPPRLPRPRPRPFCKPRP,-0.25
9,RRIRKRPPRLPRPRPRPWLTPRP,0.0883
10,RRIRWRPPRLPRPRPRPVSHPRP,-0.0115
11,RRIRDRPPRLPRPRPRPVLTPRP,0.31
12,RRIRCRPPRLPRPRPRPRGRPRP,0.46
13,RRIRSRPPRLPRPRPRPFEMPRP,-0.353
14,RRIRNRPPRLPRPRPRPNKYPRP,-0.774
15,RRIRARPPRLPRPRPRPRMCPRP,0.339
16,RRIRARPPRLPRPRPRPHAKPRP,-0.0556
17,RRIRTRPPRLPRPRPRPQPMPRP,0.267
18,RRIRFRPPRLPRPRPRPLWDPRP,-0.119
19,RRIRGRPPRLPRPRPRPCFSPRP,0.0442
20,RRIRDRPPRLPRPRPRPACHPRP,0.0454
21,RRIRDRPPRLPRPRPRPNATPRP,0.0821
